According to publication PMC13507078, “The BRCT domain enhances DNA binding and catalytic efficiency of fungal PARPs”:

Target: T1, Af-PARP1 ΔBRCT (Aspergillus fumigatus, UniProt B0Y3N8 196-688)
T1 sequence: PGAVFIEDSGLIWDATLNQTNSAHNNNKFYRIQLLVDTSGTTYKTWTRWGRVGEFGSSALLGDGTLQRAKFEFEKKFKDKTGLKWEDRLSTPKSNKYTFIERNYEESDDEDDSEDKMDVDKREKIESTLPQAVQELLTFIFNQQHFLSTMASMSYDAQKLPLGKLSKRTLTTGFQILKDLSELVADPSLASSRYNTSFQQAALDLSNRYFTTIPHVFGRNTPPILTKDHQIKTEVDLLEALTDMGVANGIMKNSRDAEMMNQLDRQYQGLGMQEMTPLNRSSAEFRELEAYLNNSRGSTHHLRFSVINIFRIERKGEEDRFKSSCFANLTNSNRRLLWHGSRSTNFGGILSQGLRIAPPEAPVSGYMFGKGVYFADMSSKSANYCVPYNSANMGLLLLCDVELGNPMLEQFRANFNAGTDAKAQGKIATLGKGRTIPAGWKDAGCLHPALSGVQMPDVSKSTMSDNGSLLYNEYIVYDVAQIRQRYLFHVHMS
Experiment: EMSA; similar apparent strength to WT in titration; EMSA: 50 mM HEPES pH 8, 100 mM NaCl, 10% glycerol, 10 mM DTT, 45 min at 4 °C, 7% native PAGE 0.5x TBE; plasmid EMSA: 20 mM Tris-HCl pH 8, 30 mM NaCl, 1 mM EDTA, 1 mM DTT; CD: 20 mM HEPES pH 8, 100 mM NaCl, 0.5 mM TCEP, 2% glycerol
Conditions: protein: recombinant; tags: N-terminal His (HRV3C-cleavable; removed for SAXS/CD); dumbbell of two hairpins, nick

B1: DNA-1 (5'P nick) (structured_DNA)
DNA: CGGTCGATCGTAAGATCGACCGGCGCTGGAGCTTGCTCCAGCGC
modifications: 5'-phosphate
B1: binds.
